In article PMC4281115, “pH-Dependent Conformational Changes in the HCV NS3 Protein Modulate Its ATPase and Helicase Activities”:

Assays:
[1] = target: T1, NS3hel (NS3 helicase domain) (Hepatitis C virus genotype 1b …, UniProt Q9WMX2 1193-1657); experiment: fluorescence anisotropy; pH 6.4, 2 mM MgCl2; 25 mM MOPS-NaOH pH 6.4 or 7.2, 2 mM MgCl2, 25 C; 25 nM 5-FAM-dT20 with 0-10 uM NS3hel or 0-5 uM NS3FL, 10 min (anisotropy); 1 uM protein with 0-1 uM ssDNA (Trp); conditions: protein: recombinant; tags: N-terminal 6xHis-TEV, cleaved; label: 5'-carboxyfluorescein (5-FAM); single strand
T1 sequence (Q9WMX2 1193-1657): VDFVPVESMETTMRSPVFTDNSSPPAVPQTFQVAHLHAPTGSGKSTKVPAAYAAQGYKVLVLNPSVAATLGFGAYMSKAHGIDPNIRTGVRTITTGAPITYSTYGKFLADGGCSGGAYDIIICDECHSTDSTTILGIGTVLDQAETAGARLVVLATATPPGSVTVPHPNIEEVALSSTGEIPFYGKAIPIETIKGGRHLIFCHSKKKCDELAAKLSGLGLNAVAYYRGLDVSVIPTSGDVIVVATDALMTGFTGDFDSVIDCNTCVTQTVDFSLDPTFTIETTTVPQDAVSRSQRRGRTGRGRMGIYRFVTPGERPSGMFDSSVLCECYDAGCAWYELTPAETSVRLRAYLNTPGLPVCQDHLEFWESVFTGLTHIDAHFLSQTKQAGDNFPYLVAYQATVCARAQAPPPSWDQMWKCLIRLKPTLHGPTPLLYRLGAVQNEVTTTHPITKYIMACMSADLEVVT

[2] = target: T2, NS3FL (full-length NS3) (Hepatitis C virus genotype 1b …, UniProt Q9WMX2 1027-1657); experiment: as above; conditions: protein: recombinant; tags: C-terminal 6xHis; label: 5'-carboxyfluorescein (5-FAM); single strand
T2 sequence (Q9WMX2 1027-1657): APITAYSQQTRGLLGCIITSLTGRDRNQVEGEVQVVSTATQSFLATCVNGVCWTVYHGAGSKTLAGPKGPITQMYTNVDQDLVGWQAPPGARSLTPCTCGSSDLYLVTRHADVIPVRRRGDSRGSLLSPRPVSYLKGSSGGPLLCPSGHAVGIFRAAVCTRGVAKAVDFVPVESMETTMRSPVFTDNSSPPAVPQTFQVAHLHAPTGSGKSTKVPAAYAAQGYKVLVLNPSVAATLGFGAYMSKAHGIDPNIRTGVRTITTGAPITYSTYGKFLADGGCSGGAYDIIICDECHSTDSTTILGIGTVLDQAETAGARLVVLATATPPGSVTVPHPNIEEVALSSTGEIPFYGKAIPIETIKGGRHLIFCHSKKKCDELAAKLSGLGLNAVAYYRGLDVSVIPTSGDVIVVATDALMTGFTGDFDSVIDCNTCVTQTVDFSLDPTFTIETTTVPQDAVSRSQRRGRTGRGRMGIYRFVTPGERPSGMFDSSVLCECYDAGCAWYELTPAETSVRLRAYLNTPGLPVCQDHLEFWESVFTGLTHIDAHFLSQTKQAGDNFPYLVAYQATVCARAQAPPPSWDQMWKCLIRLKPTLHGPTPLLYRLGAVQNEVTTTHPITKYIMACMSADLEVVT

[3] = target: T1, NS3hel (NS3 helicase domain); experiment: fluorescence anisotropy; pH 7.2, 2 mM MgCl2; 25 mM MOPS-NaOH pH 6.4 or 7.2, 2 mM MgCl2, 25 C; 25 nM 5-FAM-dT20 with 0-10 uM NS3hel or 0-5 uM NS3FL, 10 min (anisotropy); 1 uM protein with 0-1 uM ssDNA (Trp); conditions: protein: recombinant; tags: N-terminal 6xHis-TEV, cleaved; label: 5'-carboxyfluorescein (5-FAM); single strand
[4] = target: T2, NS3FL (full-length NS3); experiment: as above; conditions: protein: recombinant; tags: C-terminal 6xHis; label: 5'-carboxyfluorescein (5-FAM); single strand

TTTTTTTTTTTTTTTTTTTT (ssDNA) [5-FAM oligo(dT)20]
Kd [1]: ~42 nM | Kd [2]: ~28 nM | Kd [3]: ~254 nM | Kd [4]: ~49 nM
